The target of the test is T1, human raver1 RRM1-3 domains (residues 39-321) (human, UniProt Q8IY67 39-321).
T1 sequence: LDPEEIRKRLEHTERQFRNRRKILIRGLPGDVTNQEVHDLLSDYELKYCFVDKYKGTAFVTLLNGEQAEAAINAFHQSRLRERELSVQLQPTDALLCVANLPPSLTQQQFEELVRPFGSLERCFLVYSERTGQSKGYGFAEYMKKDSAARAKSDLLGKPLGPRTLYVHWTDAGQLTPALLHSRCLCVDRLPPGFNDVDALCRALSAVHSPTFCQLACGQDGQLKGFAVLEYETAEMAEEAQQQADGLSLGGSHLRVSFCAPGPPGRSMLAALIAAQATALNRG
Description: SEC. On the technique in general: Size exclusion chromatography separates by hydrodynamic size, large species first.

B1: human vinculin tail domain (Vt), wild type, residues 891-1,066 (domain or fragment)
chain: GEVINQPMMMAARQLHDEARKWSSKGNDIIAAAKRMALLMAEMSRLVRGGSGTKRALIQCAKDIAKASDEVTRLAKEVAKQCTDKRIRTNLLQVCERIPTISTQLKILSTVKATMLGRTNISDEESEQATEMLVHNAQNLMQSVKETVREAEAASIKIRTDAGFTLRWVRKTPWYQ
As to B1, the binding result is reported as “binds”.

For the origin of these results see publication PMC4259812 (The Journal of Cell Biology, 2014).
